US20230062122A1 (VALO THERAPEUTICS, published 2023)

T1: MHC-I molecule (H-2K^b) on C57BL/6 splenocytes (mouse, UniProt P01887 21-119; P01901 22-369)
T1 sequence (MHC heavy): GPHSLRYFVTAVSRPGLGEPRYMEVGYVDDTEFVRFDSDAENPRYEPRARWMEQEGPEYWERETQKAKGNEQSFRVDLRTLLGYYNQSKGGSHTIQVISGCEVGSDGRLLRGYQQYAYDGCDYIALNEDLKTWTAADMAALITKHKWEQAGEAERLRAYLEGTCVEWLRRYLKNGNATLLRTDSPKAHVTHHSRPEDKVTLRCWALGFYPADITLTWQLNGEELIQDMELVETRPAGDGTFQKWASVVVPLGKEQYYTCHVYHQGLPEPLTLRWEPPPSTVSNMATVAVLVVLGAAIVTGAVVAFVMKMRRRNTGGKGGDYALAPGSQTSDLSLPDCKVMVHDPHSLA
T1 sequence (b2m): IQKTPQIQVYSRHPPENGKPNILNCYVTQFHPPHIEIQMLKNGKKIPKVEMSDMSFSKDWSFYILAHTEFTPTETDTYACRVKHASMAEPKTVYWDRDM


Key:
[1] = target: SIINFEKL on MHC-I (H-2K^b) on C57BL/6 splenocytes (mouse; chicken); experiment: flow cytometry, C57BL/6 splenocytes pulsed 2 h with SIINFEKL and stained with the APC antibody
[2] = target: T1, MHC-I molecule (H-2K^b) on C57BL/6 …; experiment: cell-based or functional assay

Molecule	% of splenocytes positive [1]	proportion of splenocytes cross-presenting SIINFEKL on MHC-I (flow cytometry with anti-H-2K^b bound to SIINFEKL) [2]
APC anti-mouse H-2K^b bound to SIINFEKL (BioLegend) (antibody)	98.5%	
KKKKKKSIINFEKL [polyK-SIINFEKL]		94.5%
SIINFEKLKKKKKK [SIINFEKL-polyK]		27.1%
SIINFEKLKKKKKK (amino caproic acid (AHX) residue between SIINFEKL and polyK) [SIINFEKL-AHX-polyK]		1.36%
